In article PMC11415531 (Synthetic and Systems Biotechnology, 2024):

Target: the molecule itself
Assay: crystal structure

B1: S-adenosyl-L-methionine-dependent methyltransferase RdmB from Streptomyces purpurascens (enzyme)
chain: MSSSSPGEPLEPTDQDLDVLLKNLGNLVTPMALRVAATLRLVDHLLAGADTLAGLADRTDTHPQALSRLVRHLTVVGVLEGGEKQGRPLRPTRLGMLLADGHPAQQRAWLDLNGAVSHADLAFTGLLDVVRTGRPAYAGRYGRPFWEDLSADVALADSFDALMSCDEDLAYEAPADAYDWSAVRHVLDVGGGNGGMLAAIALRAPHLRGTLVELAGPAERARRRFADAGLADRVTVAEGDFFKPLPVTADVVLLSFVLLNWSDEDALTILRGCVRALEPGGRLLVLDRADVEGDGADRFFSTLLDLRMLTFMGGRVRTRDEVVDLAGSAGLALASERTSGSTTLPFDFSILEFTAVSEEAAPAAQASEALPAQE
  binding result: binds
